The text below walks through data of paper PMC4794675 (Journal of Virology, 2016).

Assay [1] has as its target T1, BSA2 (glutaraldehyde-self-conjugated BSA) (Bos taurus, UniProt P02769).
T1 construct: bovine serum albumin; also called BSA2 control; source: BSA self-conjugated with 0.2% glutaraldehyde, dialysed
Briefly: ELISA. Particulars: both partners purified. Background: An ELISA detects its analyte on a solid surface through an enzyme-linked reagent.

The target in assay [2] is T2, Soluble E2 (sE2), amino acids 384 to 661 of HCV genotype 1a strain H77 (Hepatitis C virus genotype 1a, H77, UniProt P27958).
T2 construct: source: High Five insect cells, recombinant baculovirus, secreted, purified (Ni-nitrilotriacetic acid chromatography)
T2 sequence (P27958 384-661): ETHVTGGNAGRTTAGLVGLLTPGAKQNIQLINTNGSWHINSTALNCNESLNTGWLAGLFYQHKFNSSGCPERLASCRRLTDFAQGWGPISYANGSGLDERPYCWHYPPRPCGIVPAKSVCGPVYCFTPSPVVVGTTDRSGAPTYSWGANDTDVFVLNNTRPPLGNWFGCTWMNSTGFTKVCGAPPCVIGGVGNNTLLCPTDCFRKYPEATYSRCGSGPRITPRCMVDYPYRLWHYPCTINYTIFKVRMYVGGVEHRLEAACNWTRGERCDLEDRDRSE
Description: SPR; Biacore 3000, sE2 immobilised on CM5 by amine coupling; MAbs or Fabs injected; HBS pH 7.2, 25°C, 20 μl/min; 1:1 Langmuir fit. Particulars: both partners purified. In general terms: In SPR one partner is held on a chip, and binding of the other changes the refractive index at the surface.

The target in assay [3] is T3, full-length (FL) E2 protein (Hepatitis C virus; strain of this …).
T3 construct: source: HEK293T, transfected, in clarified lysate
T3 sequence (P27958 384-746): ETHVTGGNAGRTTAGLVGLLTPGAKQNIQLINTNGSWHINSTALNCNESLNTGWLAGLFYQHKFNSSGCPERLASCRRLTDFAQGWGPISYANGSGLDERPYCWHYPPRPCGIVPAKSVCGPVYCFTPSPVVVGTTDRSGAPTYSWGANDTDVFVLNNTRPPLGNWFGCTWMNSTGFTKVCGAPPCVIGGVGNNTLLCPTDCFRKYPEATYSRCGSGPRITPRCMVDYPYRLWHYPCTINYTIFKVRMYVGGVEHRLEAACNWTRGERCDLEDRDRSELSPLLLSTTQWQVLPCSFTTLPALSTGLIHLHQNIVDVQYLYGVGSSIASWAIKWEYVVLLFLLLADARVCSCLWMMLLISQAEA
Briefly: ELISA. Particulars: one partner purified.

Assay [4] has as its target T4, sE2 expressed in mammalian cells (HEK293T lysate) (Hepatitis C virus; strain of this …).
T4 construct: also called mammalian cell-expressed sE2; source: HEK293T, transfected, in clarified lysate
Briefly: ELISA. Particulars: one partner purified.

In assay [5] the target is T5, E1E2 heterodimer (E1E2 glycoprotein) (Hepatitis C virus; strain of this …).
T5 construct: source: HEK293T, transfected, in clarified lysate
Description: ELISA. To be noted: one partner purified.

T1 sequence (P02769 25-607): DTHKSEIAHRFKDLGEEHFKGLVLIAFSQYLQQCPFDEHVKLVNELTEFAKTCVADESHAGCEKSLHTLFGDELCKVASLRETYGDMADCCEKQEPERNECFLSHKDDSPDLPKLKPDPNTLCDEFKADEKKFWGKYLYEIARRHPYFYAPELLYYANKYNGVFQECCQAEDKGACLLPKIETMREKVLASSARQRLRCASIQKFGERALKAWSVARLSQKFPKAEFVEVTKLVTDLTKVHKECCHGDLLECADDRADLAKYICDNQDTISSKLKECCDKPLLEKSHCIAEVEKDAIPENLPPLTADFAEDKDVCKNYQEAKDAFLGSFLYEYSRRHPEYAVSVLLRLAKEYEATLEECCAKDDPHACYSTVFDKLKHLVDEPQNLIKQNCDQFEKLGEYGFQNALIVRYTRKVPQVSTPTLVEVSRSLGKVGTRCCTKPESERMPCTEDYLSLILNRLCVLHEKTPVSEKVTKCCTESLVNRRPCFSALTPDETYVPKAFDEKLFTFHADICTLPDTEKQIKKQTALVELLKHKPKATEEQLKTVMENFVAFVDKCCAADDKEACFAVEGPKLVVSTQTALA

B1: MAb C2 (mouse monoclonal antibody against C-epitope I) (antibody, V domains shown)
VH: EVQLQQPGAELVRPGGSVKLSCKASGYSFTTYWMNWVKQRPGQGLEWIGMIQPSDSETRLNQKFKDKATLTLDRSSSTVYMQLSSPTSDDSAVYYCARTGRGDAWLTYWGQGTSVTVSS
VL: NIVLTQSPVSLAVSLGQRATISCRASKSVSTSGYSYMHWYQQKPGQPPRLLLYLGSNLESGVPARFSGSGSGTDFTLNIHPVEEEDAATYYCQHIRELTRSFGGGTKLEIK
notes: source: also used as hybridoma supernatant
With B1, the binding result in assay [1] is reported as “no binding”. Also, in assay [2], the equilibrium dissociation constant (Kd) – broadly, the constant that tells how readily two partners part at equilibrium – stood at 49.8 nM; the koff (in general, the rate constant with which the complex falls apart) came out at 0.000848 s⁻¹; the on-rate constant (kon) (usually the rate constant with which the complex forms) was 18800 M⁻¹ s⁻¹.

B2: Fab fragment of the C2 antibody (Fab, V domains shown)
VH: B1 VH
VL: B1 VL
notes: source: papain digestion of purified IgG; Fc removed on protein G, gel filtration
B2: in assay [2], the dissociation constant (Kd) was determined as 301 nM, the koff came out at 0.00463 s⁻¹ and the on-rate constant (kon) was found to be 12800 M⁻¹ s⁻¹.

B3: MAb AP33 (broadly neutralizing mouse monoclonal antibody) (antibody, V domains shown)
VH: EVQLQESGPSLVKPSQTLSLTCSVTGDSITSGYWNWIRKFPGNKLEYMGYISYSGSTYYNLSLRSRISITRDTSKNQYYLQLNSVTTEDTATYYCALITTTTYAMDYWGQGTSVTVSS
VL: NIVLTQSPVSLAVSLGQRATISCRASESVDGYGNSFLHWFQQKPGQPPKLLIYLASNLNSGVPARFSGSGSRTDFTLTIDPVEADDAATYYCQQNNVDPWTFGGGTKLEIK
For the molecule B3, the binding result in assay [3], in assay [4] and in assay [5] was “binds” throughout. In assay [2], this molecule came in with a Kd of 0.142 nM. In assay [2], the koff amounted to 6.4e-05 s⁻¹. Moreover, the kon in assay [2] amounted to 649000 M⁻¹ s⁻¹.

B4: Fab fragment of AP33 (Fab, V domains shown)
VH: B3 VH
VL: B3 VL
notes: as for B2
In assay [2], B4 gave a Kd of 0.72 nM, an off-rate (koff) of 0.000147 s⁻¹ and an association rate constant (kon) of 230000 M⁻¹ s⁻¹.
